The assay has as its target T1, pro-brain-derived neurotrophic factor (proBDNF, residues 19-249, furin sites changed to AA) (UniProt P21237 19-249).
T1 chain: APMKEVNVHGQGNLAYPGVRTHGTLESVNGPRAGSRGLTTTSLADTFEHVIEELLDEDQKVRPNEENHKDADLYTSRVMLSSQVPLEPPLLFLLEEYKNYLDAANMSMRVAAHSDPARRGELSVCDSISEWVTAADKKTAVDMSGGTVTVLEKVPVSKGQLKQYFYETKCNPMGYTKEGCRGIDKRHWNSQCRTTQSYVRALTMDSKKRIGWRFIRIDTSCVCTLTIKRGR
Briefly: SPR; second site of two-site fit, possibly sSorCS2 oligomerization.

B1: mouse SorCS2 mature extracellular segment (sSorCS2, residues 117-1072) (receptor)
chain: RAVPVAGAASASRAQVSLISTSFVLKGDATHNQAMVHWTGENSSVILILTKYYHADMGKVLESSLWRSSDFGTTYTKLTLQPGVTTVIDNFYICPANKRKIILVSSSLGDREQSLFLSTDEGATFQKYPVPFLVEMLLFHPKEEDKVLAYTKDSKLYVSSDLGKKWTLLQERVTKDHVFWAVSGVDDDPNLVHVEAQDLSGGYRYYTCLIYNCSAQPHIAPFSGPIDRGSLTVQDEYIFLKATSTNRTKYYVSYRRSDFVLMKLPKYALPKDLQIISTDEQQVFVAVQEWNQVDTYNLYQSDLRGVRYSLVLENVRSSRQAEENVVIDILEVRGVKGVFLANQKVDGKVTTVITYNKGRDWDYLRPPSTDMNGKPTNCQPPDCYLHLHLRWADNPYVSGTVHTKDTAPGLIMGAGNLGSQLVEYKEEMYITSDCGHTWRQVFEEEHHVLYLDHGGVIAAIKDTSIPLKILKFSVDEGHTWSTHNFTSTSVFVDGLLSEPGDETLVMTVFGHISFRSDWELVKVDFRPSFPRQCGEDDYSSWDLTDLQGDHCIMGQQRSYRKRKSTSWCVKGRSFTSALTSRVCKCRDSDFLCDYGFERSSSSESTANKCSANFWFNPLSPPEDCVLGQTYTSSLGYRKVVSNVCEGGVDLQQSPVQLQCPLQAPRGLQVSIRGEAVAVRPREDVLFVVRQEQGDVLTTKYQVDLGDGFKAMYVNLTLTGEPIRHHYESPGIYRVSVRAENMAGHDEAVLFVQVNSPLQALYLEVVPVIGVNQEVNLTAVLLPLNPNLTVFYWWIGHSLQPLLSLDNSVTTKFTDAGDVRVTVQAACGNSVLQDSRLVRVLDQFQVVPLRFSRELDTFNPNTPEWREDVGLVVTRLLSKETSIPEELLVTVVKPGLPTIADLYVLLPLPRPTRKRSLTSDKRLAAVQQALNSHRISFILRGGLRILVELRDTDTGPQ
A word on the Kd: it is a measure of binding affinity in units of concentration. Read a high Kd as a looser complex. Take B1: the Kd was approximately 30 µM.
